This is an account of results in US20260000780A1, “B-LYMPHOCYTE SPECIFIC AMATOXIN ANTIBODY CONJUGATES” (priority 2021, published 2026).

The subject of assay [1] is Raji cell line (CD37-positive). The experiment in a line: FACS binding / antibodies bound per cell (BD Quantibrite PE), Raji. The arrangement: species or system human. The method, then: (§1) Binding of the anti-CD37 monoclonal antibody chHH1-HDP-LALA-D265C to the CD37-positive B-cell leukemia (B-CLL) cell lines MEC-1 and MEC-2 as well as to the human Burkitt lymphoma cell lines Raji and Ramos and to the human B-cell precursor leukemia cell line Nalm-6, which is known to be CD37-negative, were tested by fluorescence-activated cell sorting (FACS) analysis.
(§2) In order to estimate antibodies bound per cell (ABC) by flow cytometry, BD Quantibrite PE tubes (Becton Dickinson) were used, which were run at the same instrument settings as the assay, so that the FL2 axis can be converted into the number of PE molecules bound per cell. By using known ratios of PE to antibodies, PE molecules per cell can then be converted to the number of antibodies per cell (Iyer et al. 1997).
Background: Flow cytometry measures light scatter and fluorescence of single cells or particles in a stream.

Assay [2] concerns MEC-2 cell line (CD37-positive). The assay is described as follows: FACS binding / antibodies bound per cell (BD Quantibrite PE), MEC-2. The method, then: as §1, §2
The target of assay [3] is T1, CD37 (Homo sapiens, UniProt P11049).
T1 construct: A CD37 construct comprising amino acids Ala 113 to Asn 240, expressed in HEK293 cells; Fc fusion tag (Thr 106 to Lys 330); host or cells: HEK293
T1 sequence (P11049 113-240): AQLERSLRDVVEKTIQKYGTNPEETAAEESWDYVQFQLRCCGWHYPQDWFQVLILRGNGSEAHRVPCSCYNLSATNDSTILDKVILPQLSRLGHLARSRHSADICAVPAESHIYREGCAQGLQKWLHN
The experiment in a line: Biacore binding assay (surface-plasmon resonance). To be noted: CD37 construct Ala 113 to Asn 240 with Fc fusion tag, 31.25 nM to 500 nM. The method, then: Binding of the monoclonal antibody chHH1-HDP-LALA-D265C to CD37 was confirmed by surface-plasmon resonance (Biacore) interaction analysis. 0.1 μM chHH1-HDP-LALA-D265C was captured using anti-Fab capture (FAB2G) biosensors. Alternatively, biotinylated monoclonal antibody chHH1-HDP-LALA-D265C was captured by streptavidin (SA) sensors. A CD37 construct comprising amino acids Ala 113 to Asn 240, expressed in HEK293 cells with an Fc fusion tag moiety (Thr 106 to Lys 330), was added to the sensor at concentrations of 31.25 nM to 500 nM (1:2 dilution steps), and binding of the CD37 construct was assessed.
For orientation: In SPR one partner is held on a chip, and binding of the other changes the refractive index at the surface.

Assay [4] has as its system Nalm-6 cell line (CD37-negative). The assay is described as follows: FACS binding / antibodies bound per cell (BD Quantibrite PE), Nalm-6. The arrangement: species or system human. The method, then:
as §1, §2

The subject of assay [5] is Raji-Luc tumor xenograft. The assay is described as follows: Disseminated Raji-Luc tumor xenograft model. To be noted: 3.75 mg/kg (unconjugated antibody); day 89 after treatment. Format: in vivo, CB17 Scid mice. The method, then:
Cytotoxic efficacy studies in vivo were performed using various anti-CD37 antibody amatoxin conjugates in a disseminated Raji-Luc tumor xenograft model over 89 days of treatment.
Tumor cell inoculation was done on day-3 by i.v. injection of 2.5×10^6 Raji-Luc cells in CB17 Scid mice. Treatment was performed on day 0 by single dose i.v. injection at maximum tolerable dose (MTD) of 1/16 and MTD of 1/64 doses of cynomolgus MTD, respectively. Readout of the study was body weight, bioluminescence and survival. Results are shown in FIG. 10 (body weight), FIG. 11 (bioluminescence) and FIG. 12 (survival) at day 89 after treatment. All groups treated with conjugate gained body weight as normal, in contrast to the control group.

Assay [6] deals with Ramos cell line (CD37-positive). The experiment in a line: FACS binding / antibodies bound per cell (BD Quantibrite PE), Ramos. The arrangement: species or system human. The method, then:
as §1, §2

Assay [7] relates to cynomolgus CD37. The assay is described as follows: Cross reactivity with cynomolgus PBMCs by flow cytometry. The format is binding. The method, then:
Cross reactivity of the anti-CD37 chHH1-HDP-LALA-D265C with cynomolgus peripheral blood mononuclear cells (PBMCs) was assessed by flow cytometry. As control, human PBMCs were stained using the same set of antibodies. FACS analysis was done according to a standard protocol. In brief: PBMCs were resuspend in 300 μL staining medium (3.3×10^5 cells/50 μl staining medium). 50 μl cell suspension for each sample (=3.3×10^5 cells per sample) were piptted into one well of an U-well plate. 50 μl of pre-diluted isotype and antibody solutions were added to the samples in each well and incubated for 30 min on ice, followed by the addition of 100 μl ice-cold PBS and centrifugation at 4° C., 300 g, 6 min. The resulting supernatant was discarded and cells were washed with 200 μl ice-cold PBS, pH 7.4 followed by centrifugation at 4° C., 300 g, 6 min. The wash step was repeated once. The supernatant was discarded and cells resuspended in 100 μl of the secondary antibody solution. For the untreated sample (control) 100 μl staining medium were used. Cells were incubated for 30 min on ice protected from light. 100 μl ice-cold PBS were added and cells were centrifuge at 4° C., 300 g, 6 min. The supernatant was discarded and cells were washed twice with 200 μl ice-cold PBS, pH 7.4 and centrifuged at 4° C., 300 g, 6 min. […]

Assay [8] relates to MEC-1 cell line (CD37-positive). The assay is described as follows: FACS binding / antibodies bound per cell (BD Quantibrite PE), MEC-1. The method, then: as §1, §2

B1: chHH1-HDP-LALA-D265C: Unconjugated anti-CD37 antibody, heavy chain SEQ ID No. 11 (234Ala, 235Ala, 265Cys), light chain SEQ ID No. 12 (antibody)
heavy: EIQLQQSGPELVKPGASVKVSCKASGYSFTDYNMYWVKQSHGKSLEWIGYIDPYNGDTTYNQKFKGKATLTVDKSSSTAFIHLNSLTSEDSAVYYCARSPYGHYAMDYWGQGTSVTVSSASTKGPSVFPLAPSSKSTSGGTAALGCLVKDYFPEPVTVSWNSGALTSGVHTFPAVLQSSGLYSLSSVVTVPSSSLGTQTYICNVNHKPSNTKVDKKVEPKSCDKTHTCPPCPAPEAAGGPSVFLFPPKPKDTLMISRTPEVTCVVVCVSHEDPEVKFNWYVDGVEVHNAKTKPREEQYNSTYRVVSVLTVLHQDWLNGKEYKCKVSNKALPAPIEKTISKAKGQPREPQVYTLPPSREEMTKNQVSLTCLVKGFYPSDIAVEWESNGQPENNYKTTPPVLDSDGSFFLYSKLTVDKSRWQQGNVFSCSVMHEALHNHYTQKSLSLSPGK
light: DIVMTQSHKLLSTSVGDRVSITCKASQDVSTAVDWYQQKPGQSPKLLINWASTRHTGVPDRFTGSGSGTDYTLTISSMQAEDLALYYCRQHYSTPFTFGSGTKLEIKRTVAAPSVFIFPPSDEQLKSGTASVVCLLNNFYPREAKVQWKVDNALQSGNSQESVTEQDSKDSTYSLSSTLTLSKADYEKHKVYACEVTHQGLSSPVTKSFNRGEC
modifications: Heavy chain of chHH1-HDP-LALA-D265C comprising amino acid substitutions L235A, L235A and D265C; Light chain of chHH1-HDP, chHH1-HDP-265C, chHH1-HDP-LALA-D265C, respectively
Turning to B1, the “binding by FACS analysis” value in assay [1] is reported as “bind strongly”; in assay [2], “bind strongly”; in assay [4] (Nalm-6 (CD37-negative)), “No binding was detected”; in assay [6] it was “bind strongly”; in assay [8], “bind strongly”. Besides, the “antibodies bound per cell (ABC) value” in assay [1] (flow cytometry) is on record as 32,500; in assay [2] (flow cytometry), 137,200; in assay [4] (Nalm-6, flow cytometry), 42; in assay [6] (flow cytometry) it was 31,500; in assay [8] (flow cytometry) it was 33,004. Further, the “binding to CD37 by surface-plasmon resonance (Biacore)” value in assay [3] is on record as “confirmed”. Besides, the Alive animals in assay [5] is listed as 0/10. Besides, the “specific binding to cynomolgus CD37” value in assay [7] is recorded as “does not exhibit specific binding”.
